According to doi:10.1101/2020.08.21.260711, “Eukaryotic translation initiation factor 5A and its hypusination play an important role in proliferation and differentiation of the human enteric protozoan parasite Entamoeba histolytica” (bioRxiv, 2020):

Molecular target: T1, Entamoeba histolytica deoxyhypusine synthase 1 (EhDHS1) with the amino-terminal His-tag (E. histolytica, UniProt C4LXB8 1-331)
T1 sequence (looked up): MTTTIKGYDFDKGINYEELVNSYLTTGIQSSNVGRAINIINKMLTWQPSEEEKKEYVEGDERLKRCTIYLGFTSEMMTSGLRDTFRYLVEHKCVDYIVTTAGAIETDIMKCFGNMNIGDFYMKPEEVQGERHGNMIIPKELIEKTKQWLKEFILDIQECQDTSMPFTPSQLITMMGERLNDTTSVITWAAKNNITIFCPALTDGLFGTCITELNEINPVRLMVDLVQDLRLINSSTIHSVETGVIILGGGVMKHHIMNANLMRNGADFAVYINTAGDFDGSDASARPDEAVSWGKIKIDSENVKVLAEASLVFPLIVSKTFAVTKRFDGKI
Assay: cell-based or functional assay

B1: Entamoeba histolytica deoxyhypusine synthase 2 (EhDHS2) with the carboxyl-terminal S-tag (enzyme, E. histolytica, UniProt C4M2N7 1-336, looked up)
chain: MSITGEEFAKVTSKVLGESKEYKGEKCIGYDFDNGVDFNKVMEKMKYTGFQALNLGLCIEQVNEMRKNHAKIFLGMSSNIVSSGLREVIHYLVKNKFVDAIVVTAGGIEEDFIKTMHPTLLGDFYFKGKELYPNGYNRIGNLILPNSNYCEFEDWMDPLLLECLKEQNEHGVHWTPSKLVHKMGESINNESSIYYWAAKNNIPVFSPAITDGSIGDMIFFFSYKNEGLVLDLVQDVIKIDEMAFNAEKVGCLLVGAGIAKHHILNAMKRRGGCDYCAMLSTSIECDASDAGSEIAADRTKGFFKPECNPAKVIGDATILLPLIVASTFAQKEEPTK
notes: EhDHS2 gene amplified by PCR, stop codon removed, cloned into AatII-XhoI of pETDuet-EhDHS1; The stop codon was removed to fuse the gene with the C-terminal S-Tag of pETDuet; also called S-tag DHS2; EHI_006030; source: E. coli BL21 (DE3), coexpressed with EhDHS1 from pETDuet-EhDHS1/2, in lysate, then copurified on Ni2+-NTA; not shown: S-tag, C-terminal, kept
  DHS enzymatic activity (1,3-diaminopropane production) of coexpressed EhDHS1/EhDHS2 as compared to EhDHS1 alone, with EheIF5A1 or EheIF5A2 as substrates: > 2000 fold
